According to PMC7141177 (Journal of molecular biology, 2018):

Assays:
[1] = biological target: AKMT-ΔNTD-short (aa309–709) (Toxoplasma gondii); experiment: SEC-MALS
[2] = biological target: AKMT-ΔNTD (aa289–709) (Toxoplasma gondii); experiment: SEC-MALS
[3] = biological target: AKMT-ΔNTD (Toxoplasma gondii, UniProt B9Q0K5); experiment: isothermal titration calorimetry; type: binding
[4] = biological target: full-length T. gondii apical complex lysine (K) methyltransferase (AKMT, aa1–709) (Toxoplasma gondii); experiment: SEC-MALS

## AKMT-ΔNTD-short (aa309–709) (domain or fragment)
[1]
  stoichiometry N: 2

## AKMT-ΔNTD (aa289–709) (domain or fragment)
[2]
  stoichiometry N: 2

## Nc1ncnc2c1ncn2[C@@H]1O[C@H](C[C@@H](N)CC[C@H](N)C(=O)O)[C@@H](O)[C@H]1O [sinefungin]
[3]
  Kd: 260 nM

## full-length T. gondii apical complex lysine (K) methyltransferase (AKMT, aa1–709) (enzyme)
[4]
  stoichiometry N: 2
